Source: a protein production outcome set (Wang et al. 2014)

Assay: label from the status in PepcDB records

MNEKIVREQRGGEDSPSSVSAKSATAAASASTASMTFASAALESHKTTTITTASSSPRTSGASASASSSSRSASAPASSSSQQEKQPMLNATDMRELREIKQLLWGDNVREDVFKRWSQGFEFSKVEPSALVQKQGGPCAVIAPVQAYLLKIIIMDLPGIKLSEISLDKSQNLLIQALCDILKNCRAPRYRIVHLLRRRGNATEAGSTKKRSPAGEEESALAGQAAGSSEEVEEAAEATPASVSKLSQALQLEHDMHQELSPDEFHERLHTLHFKNIAAVARYYMENYDQLAHTYGVLLFMYSVFLTKGLELVAADISDTSEPLIHSTYGYGGQSLINLMLTGRAVAHVWDNEQDVGGLKLRGICEQSDIGFITLMEEMRYCTVGSFFKNPRYPVWVMGSDTHLTVLFSNEKRLVSPETPSETGRRIFKSYDPEGNNFISTTMLREVLIALNLVSEPAYVALMQKRLDPENLGIILLNAFMDEFFPLESRSTPDTFELMHYNGIPGSNENNKVRYYCGTAILLEGDLKSVCTSNPMVTCLQTKWPNIEINWHDGHMPSLN
protein production: failed

MREGLRVLNSCNKVRGIFTLTQKTIKTFCFILAILVLIIFAVVFHNHSLEIIDYIDDLGWLAPVLFLITYCLATLLLLPTMVLTLAGGAVFGPVFGTLLNLLGATSGAALAFLITRHLVYDWFSTKKGEKLNKLIAGVDEKGWVFVAFLRLFPIVPFNLVNYGLGVTGISFRLYLLTTFIFLIPAEIIYTYFGYVGMDALTRPGHLYRNGGIFLTGLAIFFLLVIRIMKKR
protein production: failed

MKLGKAQSLEDVAGLVGACAVTILAVIIISALYVGREVFVPVALAILLSFVLARPVNFLQSLRVPRAIAAISTVLFAFAVIFALGSLIATQLSRLADDLPQYQSTIQSKITSLRGVTGGSTTLERAEGMLQNLSKELNKPKNAPAPSLSNPPTSSSRPVTPVPVEVLQPDPGTLANLRSLIAPLISPLATTGIIVIFVIFILLQREDLRNRLIRLAGTRDLQRTTAALDDAASRLSRLFLNQLLINSGFGVLIGTGLWIIGVPSPALWGILAAVLRFVPYIGSIISAAFPLTLAVAVDPGWSMLVWTAILFFVIEPAIAHVVEPMVYGRSTGLSPVAVVISATFWTALWGPIGLVLATPLTVCLVVLGRHVERLAFLDVMFGDRPALSPPEIFYQRMLAGDPAEAAEKAEQFLKERSLSSYYDDVALKGLQLAQADLDRDALDAVRLTRIKETVQEFTEDLTDEIDQAPDGDEATTDAEAAAAVEVTPVDHADDDIAVLKPADLKPGWQGAAPVMCIGGRSQLDEAAALMLAHLCRVHGIGARVEPSSALSTKNIFGLDVSNVALICLSYLEASNTTHIRYAVRRLRRKAPHAKIIVALWSAETPQLADTNESAQADATVLTLRDAVKYCVEEAIIEPPPQTIEMPVISEAV
protein production: failed

MKINMHILGLLVVVGLFSLQSCDDESYDIEGSNQNYVYINVNRWTSTEYPQNTFVYEVLRTPIGSSLESGPEIVKVGVRSTKVASKDITVTLDIDNCASIGEFSSFPDGVKVTLDKKELVIPAGSMLSSDSVTIEIEDGKWSEFVNTSYLLPLKVTSVSNAALSETHSSAYLAVSTSFTNCVPGATSVEGTLISDRSAWTATNNGVDVGTTLFDGNTRTYPSQDASSTVIVNLNGVYQNITGIRLQYYSRNYSLSSAAVYTSETGGEDYEYQGNVTFSRATPQYIRFYGAVSARYVKLELLPYSSGYGIVLSEFDMYQNE
protein production: failed

MSITLITAAPGAGKTIFAVWNIIKPAVEADRVVYTAGIPELKLPAISLSYSQVKRWADRELVEVENPSGIPIPDDEKPSRLQNITEGALIVIDEVQYLWPASGSREPGEDIKYLTKHRHHGLEFVLITQAPQLIHKNVLAVVDKHIHMLSDWHGRKRYEWPEYCATVRATSSKLKAVSQRYELPKEAYGLYRSASMHI
protein production: failed

MLEQIFILLIALVVLVWSADKFVFGASSLARNLGISPMIIGLTIVAMGSSAPEMMVAATASMQGNPDTAIGNAIGSNITNIALVLGITALLQPLTVSSQTIKREIPLILAVTALGYWLLFDNHFSFIEGIILISGFAIYIITLLVITLKKTRGKPSDDPLIIEAEQDVAAAVSMKLSLIWLGVGIILLPLSASFLVDSSVYIAKAYGISDLVIGLTIIAIGTSLPELAASIMSIIKKEDDLALGNIIGSNIFNILAVLPIAGLIAPGNIDALAASRDAPYMLGITLLLFILCFSRRLGAFRITRAKGALLLLSFIAYQVLLFSQLS
protein production: failed

MGHHHHHHSHRNLDSRTFITIGDRNFEVEADDLVTISELGRGAYGVVEKVRHAQSGTIMAVKRIRATVNSQEQKRLLMDLDINMRTVDCFYTVTFYGALFREGDVWICMELMDTSLDKFYRKVLDKNMTIPEDILGEIAVSIVRALEHLHSKLSVIHRDVKPSNVLINKEGHVKMCDFGISGYLVDSVAKTMDAGCKPYMAPERINPELNQKGYNVKSDVWSLGITMIEMAILRFPYESWGTPFQQLKQVVEEPSPQLPADRFSPEFVDFTAQCLRKNPAERMSYLELMEHPFFTLHKTKKTDIAAFVKEILGEDS
protein production: failed

MTRPMPESIDERIKAALSKRGIDELYTHQYSAFQYVQKGESIVTVTPTASGKTLCYNLPVLQSIAQDETNRALYLFPTKALAQDQKSELNEIIDEMGIDIKSFTYDGDTSPAIRQKVRKAGHIVITNPDMLHSAILPHHTKWVSLFENLKYIVIDELHTYRGVFGSHVANVIRRLKRICRFYGSDPVFICTSATIANPKELGEQLTGKPMRLVDDNGAPSGRKHFVFYNPPIVNKPLNIRRSATAEVNELAKEFLKNKVQTIVFARSRVRVEIILSHIQELVKKEIGTKSIRGYRGGYLPKERREIERGLREGDILGVVSTNALELGVDIGQLQVCVMTGYPGSVASAWQQAGRAGRRHGESLIIMVANSTPIDQYIVRHPEYFFNRSPESARINPENLIILVDHLKCAAYELPFRADEEFGAMEVSDILEYLQEEAVLHRNGERYHWASESFPASNISLRSASQENVVIVDQSDIANVRIIGEMDRFSAMTLLHDEAIYLHEGVQYQVEKLDWDHKKAYVRKVDVEYYTDANLAVQLKVLEIDKTKEKSRTSLHYGDVTVNALPTIFKKIKMTTFENIGSGPIHLPEEELHTSAAWLEIKTADEDIGEKTLEQLLLGISNVLQHIVPVYIMCDRNDVHVVSQIKAAHTGLPTIFLYDHYPGGIGLAEEVFKRFSDINEAAKQLITHCPCHDGCPSCIGTEIEGIKAKERILQLLDQMSLEHHHHHH
protein production: not failed

MRAAVRTRIVATYLAVAALWGSTWMAIRIGLEDLPPLRFAGVRMAIAALVLAPFALRGGAWREVVGPARAQLALVAVLQIALPYGLMFVAQQWVPSGLAAVLFASFPVWIALLARALVPGETLTPARVASALLGIAGVAVLQLPHLGDLEGSGRLLLGGALVVLSSMIVALANVLVRRHLAAVSPLAMTAGQTAVGAVLLLAAAALLEQGRPAAFTASAVAALAWLAVFGTALTYVGLYWLVPRVPMAAIGALPLLDTSVAVTLGALVLHEPVGWNLALGGGMVLAAAALTIPRRR
protein production: failed

MIKTEKNQTSKVTDEVDQLVQRSKKALAILKSYTQAQIDDLCEKVAVAALDNHMKLAKLAVEETGRGVVEDKAIKNIYASEYIWNSMRHDKTVGVIKEDDEEQLMEIAEPVGIVAGVTPVTNPTSTTVFKTLISLKGRNTIVFGFHPQAQKCSSAAADVMREAIKAAGGPADAVLYIEHPSIEATDALMHHTDVATILATGGPSMVTAAYSSGKPALGVGPGNGPTYVEKTADIKQAVNDIVLSKTFDNGMICASE
protein production: failed

MKLLVVDDSSTMRRIIKNTLSRLGYEDVLEAEHGVEAWEKLDANADTKVLITDWNMPEMNGLDLVKKVRSDSRFKEIPIIMITTEGGKAEVITALKAGVNNYIVKPFTPQVLKEKLEVVLGTND
protein production: failed
